Measurements: IntAct's records for PubMed 31515488

B1: Myeloid leukemia factor 1 (Homo sapiens), P58340 (parent)
chain: MFRMLNSSFEDDPFFSESILAHRENMRQMIRSFSEPFGRDLLSISDGRGRAHNRRGHNDGEDSLTHTDVSSFQTMDQMVSNMRNYMQKLERNFGQLSVDPNGHSFCSSSVMTYSKIGDEPPKVFQASTQTRRAPGGIKETRKAMRDSDSGLEKMAIGHHIHDRAHVIKKSKNKKTGDEEVNQEFINMNESDAHAFDEEWQSEVLKYKPGRHNLGNTRMRSVGHENPGSRELKRREKPQQSPAIEHGRRSNVLGDKLHIKGSSVKSNKK
partner: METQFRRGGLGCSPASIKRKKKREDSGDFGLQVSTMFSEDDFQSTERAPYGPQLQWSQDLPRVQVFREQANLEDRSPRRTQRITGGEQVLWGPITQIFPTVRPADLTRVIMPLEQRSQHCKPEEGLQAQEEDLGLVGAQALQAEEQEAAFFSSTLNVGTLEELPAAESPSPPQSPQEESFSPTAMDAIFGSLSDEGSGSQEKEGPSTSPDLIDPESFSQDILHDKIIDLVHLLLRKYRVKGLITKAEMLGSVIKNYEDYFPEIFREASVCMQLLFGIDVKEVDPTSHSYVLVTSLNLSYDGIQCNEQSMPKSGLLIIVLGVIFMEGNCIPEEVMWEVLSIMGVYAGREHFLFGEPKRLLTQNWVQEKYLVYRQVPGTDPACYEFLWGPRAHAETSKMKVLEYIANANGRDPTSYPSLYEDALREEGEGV
B2: Lebercilin-like protein (Homo sapiens), O95447 (parent)
chain: MSLADLTKTNIDEHFFGVALENNRRSAACKRSPGTGDFSRNSNASNKSVDYSRSQCSCGSLSSQYDYSEDFLCDCSEKAINRNYLKQPVVKEKEKKKYNVSKISQSKGQKEISVEKKHTWNASLFNSQIHMIAQRRDAMAHRILSARLHKIKGLKNELADMHHKLEAILTENQFLKQLQLRHLKAIGKYENSQNNLPQIMAKHQNEVKNLRQLLRKSQEKERTLSRKLRETDSQLLKTKDILQALQKLSEDKNLAEREELTHKLSIITTKMDANDKKIQSLEKQLRLNCRAFSRQLAIETRKTLAAQTATKTLQVEVKHLQQKLKEKDRELEIKNIYSHRILKNLHDTEDYPKVSSTKSVQADRKILPFTSMRHQGTQKSDVPPLTTKGKKATGNIDHKEKSTEINHEIPHCVNKLPKQEDSKRKYEDLSGEEKHLEVQILLENTGRQKDKKEDQEKKNIFVKEEQELPPKIIEVIHPERESNQEDVLVREKFKRSMQRNGVDDTLGKGTAPYTKGPLRQRRHYSFTEATENLHHGLPASGGPANAGNMRYSHSTGKHLSNREEMELEHSDSGYEPSFGKSSRIKVKDTTFRDKKSSLMEELFGSGYVLKTDQSSPGVAKGSEEPLQSKESHPLPPSQASTSHAFGDSKVTVVNSIKPSSPTEGKRKIII
B3: Serine/threonine-protein kinase PAK 5 (Homo sapiens), Q9P286 (parent)
chain: MFGKKKKKIEISGPSNFEHRVHTGFDPQEQKFTGLPQQWHSLLADTANRPKPMVDPSCITPIQLAPMKTIVRGNKPCKETSINGLLEDFDNISVTRSNSLRKESPPTPDQGASSHGPGHAEENGFITFSQYSSESDTTADYTTEKYREKSLYGDDLDPYYRGSHAAKQNGHVMKMKHGEAYYSEVKPLKSDFARFSADYHSHLDSLSKPSEYSDLKWEYQRASSSSPLDYSFQFTPSRTAGTSGCSKESLAYSESEWGPSLDDYDRRPKSSYLNQTSPQPTMRQRSRSGSGLQEPMMPFGASAFKTHPQGHSYNSYTYPRLSEPTMCIPKVDYDRAQMVLSPPLSGSDTYPRGPAKLPQSQSKSGYSSSSHQYPSGYHKATLYHHPSLQSSSQYISTASYLSSLSLSSSTYPPPSWGSSSDQQPSRVSHEQFRAALQLVVSPGDPREYLANFIKIGEGSTGIVCIATEKHTGKQVAVKKMDLRKQQRRELLFNEVVIMRDYHHDNVVDMYSSYLVGDELWVVMEFLEGGALTDIVTHTRMNEEQIATVCLSVLRALSYLHNQGVIHRDIKSDSILLTSDGRIKLSDFGFCAQVSKEVPKRKSLVGTPYWMAPEVISRLPYGTEVDIWSLGIMVIEMIDGEPPYFNEPPLQAMRRIRDSLPPRVKDLHKVSSVLRGFLDLMLVREPSQRATAQELLGHPFLKLAGPPSCIVPLMRQYRHH
partner: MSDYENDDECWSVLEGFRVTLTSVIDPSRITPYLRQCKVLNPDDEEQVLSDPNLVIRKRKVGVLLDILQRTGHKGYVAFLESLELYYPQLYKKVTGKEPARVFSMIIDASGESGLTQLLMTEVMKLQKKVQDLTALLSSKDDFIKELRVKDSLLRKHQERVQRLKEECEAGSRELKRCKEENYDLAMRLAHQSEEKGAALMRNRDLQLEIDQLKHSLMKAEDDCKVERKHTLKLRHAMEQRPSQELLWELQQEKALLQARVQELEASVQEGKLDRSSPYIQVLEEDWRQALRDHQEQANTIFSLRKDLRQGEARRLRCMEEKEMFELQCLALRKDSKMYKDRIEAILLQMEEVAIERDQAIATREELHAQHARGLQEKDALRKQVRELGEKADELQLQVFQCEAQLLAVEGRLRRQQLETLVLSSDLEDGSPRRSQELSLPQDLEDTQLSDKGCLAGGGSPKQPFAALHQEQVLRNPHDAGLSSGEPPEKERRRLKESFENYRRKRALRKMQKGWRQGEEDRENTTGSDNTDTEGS
B4: Calcium-binding and coiled-coil domain-containing protein 2 (Homo sapiens), Q13137 (parent)
chain: MEETIKDPPTSAVLLDHCHFSQVIFNSVEKFYIPGGDVTCHYTFTQHFIPRRKDWIGIFRVGWKTTREYYTFMWVTLPIDLNNKSAKQQEVQFKAYYLPKDDEYYQFCYVDEDGVVRGASIPFQFRPENEEDILVVTTQGEVEEIEQHNKELCKENQELKDSCISLQKQNSDMQAELQKKQEELETLQSINKKLELKVKEQKDYWETELLQLKEQNQKMSSENEKMGIRVDQLQAQLSTQEKEMEKLVQGDQDKTEQLEQLKKENDHLFLSLTEQRKDQKKLEQTVEQMKQNETTAMKKQQELMDENFDLSKRLSENEIICNALQRQKERLEGENDLLKRENSRLLSYMGLDFNSLPYQVPTSDEGGARQNPGLAYGNPYSGIQESSSPSPLSIKKCPICKADDICDHTLEQQQMQPLCFNCPICDKIFPATEKQIFEDHVFCHSL
B5: Cyclin-dependent kinase 4 inhibitor D (Homo sapiens), P55273 (parent)
chain: MLLEEVRAGDRLSGAAARGDVQEVRRLLHRELVHPDALNRFGKTALQVMMFGSTAIALELLKQGASPNVQDTSGTSPVHDAARTGFLDTLKVLVEHGADVNVPDGTGALPIHLAVQEGHTAVVSFLAAESDLHRRDARGLTPLELALQRGAQDLVDILQGHMVAPL

Variants of: B1
Settings: with magab_human MAGEA11, P43364

Variant | effect of a mutation on the interaction
P226T | with no effect

Variants of: B2
Settings: with tfp11_human TFIP11, Q9UBB9

Variant | effect of a mutation on the interaction
G17S | with no effect

Variants of: B2
Settings: with tpm3_human TPM3, P06753

Variant | effect of a mutation on the interaction
G17S | with no effect

Variants of: B3
Settings: with card9_human CARD9, Q9H257

Variant | effect of a mutation on the interaction
R335P | with no effect

Variants of: B4
Settings: with leg8_human LGALS8, O00214

Variant | effect of a mutation on the interaction
T255A | with no effect
T273A | with no effect
P389A | with no effect
E222K | with no effect

Variants of: B4
Settings: with tcl1a_human TCL1A

Variant | effect of a mutation on the interaction
T273A | with no effect
P389A | with no effect
E222K | with no effect

Variants of: B4
Settings: with dus12_human DUSP12, Q9UNI6

Variant | effect of a mutation on the interaction
T273A | with no effect
P389A | with no effect

Variants of: B4
Settings: with tekt3_human TEKT3, Q9BXF9

Variant | effect of a mutation on the interaction
V248A | with no effect

Variants of: B4
Settings: with smrd1_human SMARCD1, Q96GM5

Variant | effect of a mutation on the interaction
E222K | with no effect

Variants of: B5
Settings: with cdk6_human CDK6, Q00534

Variant | effect of a mutation on the interaction
V94M | with no effect
P67L | with no effect
P142S | with no effect
A121S | with no effect

Variants of: B5
Settings: with nr4a1_human NR4A1, P22736

Variant | effect of a mutation on the interaction
P142S | disrupting interaction strength
A121S | with no effect

Variants of: B5
Settings: with nr4a2_human NR4A2, P43354

Variant | effect of a mutation on the interaction
P142S | with no effect
A121S | with no effect

Variants of: B5
Settings: with cdk4_human CDK4, P11802

Variant | effect of a mutation on the interaction
A121S | with no effect
